Experimental data as given in patent publication US20250368745A1 (published 2025).
Numbering of substitutions follows the chain as printed. Names and notes keep the numbering of the source.

T1: human IL-18BP (human, UniProt O95998 31-194)
T1 construct: also called hIL-18BP; Mature Human Isoform A
T1 sequence: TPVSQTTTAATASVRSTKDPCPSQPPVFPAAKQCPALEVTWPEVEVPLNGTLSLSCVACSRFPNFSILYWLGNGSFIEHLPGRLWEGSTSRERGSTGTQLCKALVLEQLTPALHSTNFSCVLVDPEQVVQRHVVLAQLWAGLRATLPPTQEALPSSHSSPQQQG

T2: human IL-18BP (human, UniProt O95998 31-194)
T2 construct: UniProt printed as 095998; also called hIL-18BP
T2 sequence: T1 sequence

B1: SA301a light chain variant V29T (antibody, V domains shown)
VH: QVQLQESGPGLVKPSQTLSLTCTVSGYSITSDYNSHWIRQPPGKGLEWIGYIHYSGSTNYNPSLKSRVTISRDTSKNQFSLKLSSVTAADTAVYYCARNYGSIYVNYFDYWGQGTLVTVSS
VL: EIVLTQSPATLSLSPGERATLSCSASSSTSYMYWYQQKPGQAPRPLIYRTSNLASGIPARFSGSGSGTDFTLTISSLEPEDFAVYYCQQYHSYPTFGGGTKVEIK
B2: SA301a light chain variant S30F (antibody, V domains shown)
VH: B1 VH
VL: B1 VL with T29V, S30F
B3: SA301a light chain variant S27Y (antibody, V domains shown)
VH: B1 VH
VL: B1 VL with S27Y, T29V
B4: SA301a light chain variant S27G (antibody, V domains shown)
VH: B1 VH
VL: B1 VL with S27G, T29V
B5: SA301a light chain variant S30D (antibody, V domains shown)
VH: B1 VH
VL: B1 VL with T29V, S30D
B6: SA301a light chain variant S27L (antibody, V domains shown)
VH: B1 VH
VL: B1 VL with S27L, T29V
B7: SA301a light chain variant S27A (antibody, V domains shown)
VH: B1 VH
VL: B1 VL with S27A, T29V
B8: SA301a light chain variant V29E (antibody, V domains shown)
VH: B1 VH
VL: B1 VL with T29E
B9: SA301a light chain variant S27R (antibody, V domains shown)
VH: B1 VH
VL: B1 VL with S27R, T29V
B10: SA301a light chain variant S27P (antibody, V domains shown)
VH: B1 VH
VL: B1 VL with S27P, T29V
B11: SA301a light chain variant V29Q (antibody, V domains shown)
VH: B1 VH
VL: B1 VL with T29Q
B12: SA301a light chain variant S27I (antibody, V domains shown)
VH: B1 VH
VL: B1 VL with S27I, T29V
B13: SA301a light chain variant S27Q (antibody, V domains shown)
VH: B1 VH
VL: B1 VL with S27Q, T29V
B14: SA301a light chain variant S28D (antibody, V domains shown)
VH: B1 VH
VL: B1 VL with S28D, T29V
B15: SA301a light chain variant S27H (antibody, V domains shown)
VH: B1 VH
VL: B1 VL with S27H, T29V
B16: SA301a light chain variant V29P (antibody, V domains shown)
VH: B1 VH
VL: B1 VL with T29P
B17: SA301a light chain variant S27M (antibody, V domains shown)
VH: B1 VH
VL: B1 VL with S27M, T29V
B18: SA301a light chain variant S27K (antibody, V domains shown)
VH: B1 VH
VL: B1 VL with S27K, T29V
B19: SA301a light chain variant S30L (antibody, V domains shown)
VH: B1 VH
VL: B1 VL with T29V, S30L
B20: SA301a light chain variant S27D (antibody, V domains shown)
VH: B1 VH
VL: B1 VL with S27D, T29V
B21: SA301a HC-S98D (antibody, name in Kabat numbering, V domains shown)
VH: B1 VH with S102D
VL: B1 VL with T29V
notes: IgG1 kappa
B22: SA301a HC-Y96H (antibody, name in Kabat numbering, V domains shown)
VH: B1 VH with Y100H
VL: B1 VL with T29V
notes: IgG1 kappa
B23: SA301a HC-Y96P (antibody, name in Kabat numbering, V domains shown)
VH: B1 VH with Y100P
VL: B1 VL with T29V
notes: IgG1 kappa
B24: SA301a HC-S98T (antibody, name in Kabat numbering, V domains shown)
VH: B1 VH with S102T
VL: B1 VL with T29V
notes: IgG1 kappa
B25: SA301a HC-Y96F (antibody, name in Kabat numbering, V domains shown)
VH: B1 VH with Y100F
VL: B1 VL with T29V
notes: IgG1 kappa
B26: SA301a HC-S98G (antibody, name in Kabat numbering, V domains shown)
VH: B1 VH with S102G
VL: B1 VL with T29V
notes: IgG1 kappa
B27: SA301a HC-Y96I (antibody, name in Kabat numbering, V domains shown)
VH: B1 VH with Y100I
VL: B1 VL with T29V
notes: IgG1 kappa
B28: SA301a HC-S98I (antibody, name in Kabat numbering, V domains shown)
VH: B1 VH with S102I
VL: B1 VL with T29V
notes: IgG1 kappa
B29: SA301a HC-S98Q (antibody, name in Kabat numbering, V domains shown)
VH: B1 VH with S102Q
VL: B1 VL with T29V
notes: IgG1 kappa
B30: SA301a HC-Y96E (antibody, name in Kabat numbering, V domains shown)
VH: B1 VH with Y100E
VL: B1 VL with T29V
notes: IgG1 kappa
B31: SA301a HC-S98Y (antibody, name in Kabat numbering, V domains shown)
VH: B1 VH with S102Y
VL: B1 VL with T29V
notes: IgG1 kappa
B32: SA301a HC-Y96Q (antibody, name in Kabat numbering, V domains shown)
VH: B1 VH with Y100Q
VL: B1 VL with T29V
notes: IgG1 kappa
B33: SA301a HC-Y96S (antibody, name in Kabat numbering, V domains shown)
VH: B1 VH with Y100S
VL: B1 VL with T29V
notes: IgG1 kappa
B34: SA301a HC-N95R (antibody, name in Kabat numbering, V domains shown)
VH: B1 VH with N99R
VL: B1 VL with T29V
notes: IgG1 kappa
B35: SA301a HC-Y96A (antibody, name in Kabat numbering, V domains shown)
VH: B1 VH with Y100A
VL: B1 VL with T29V
notes: IgG1 kappa
B36: SA301a HC-S98P (antibody, name in Kabat numbering, V domains shown)
VH: B1 VH with S102P
VL: B1 VL with T29V
notes: IgG1 kappa
B37: SA301a HC-Y96L (antibody, name in Kabat numbering, V domains shown)
VH: B1 VH with Y100L
VL: B1 VL with T29V
notes: IgG1 kappa
B38: SA301a HC-Y96G (antibody, name in Kabat numbering, V domains shown)
VH: B1 VH with Y100G
VL: B1 VL with T29V
notes: IgG1 kappa
B39: SA301a HC-S98N (antibody, name in Kabat numbering, V domains shown)
VH: B1 VH with S102N
VL: B1 VL with T29V
notes: IgG1 kappa
B40: SA301a HC-Y96N (antibody, name in Kabat numbering, V domains shown)
VH: B1 VH with Y100N
VL: B1 VL with T29V
notes: IgG1 kappa
B41: SA301a HC-S98H (antibody, name in Kabat numbering, V domains shown)
VH: B1 VH with S102H
VL: B1 VL with T29V
notes: IgG1 kappa
B42: SA301a HC-S98K (antibody, name in Kabat numbering, V domains shown)
VH: B1 VH with S102K
VL: B1 VL with T29V
notes: IgG1 kappa
B43: SA301a HC-Y96V (antibody, name in Kabat numbering, V domains shown)
VH: B1 VH with Y100V
VL: B1 VL with T29V
notes: IgG1 kappa
B44: SA301a HC-Y96K (antibody, name in Kabat numbering, V domains shown)
VH: B1 VH with Y100K
VL: B1 VL with T29V
notes: IgG1 kappa
B45: SA301a HC-S98A (antibody, name in Kabat numbering, V domains shown)
VH: B1 VH with S102A
VL: B1 VL with T29V
notes: IgG1 kappa
B46: SA301a HC-Y96R (antibody, name in Kabat numbering, V domains shown)
VH: B1 VH with Y100R
VL: B1 VL with T29V
notes: IgG1 kappa
B47: SA301a HC-Y96T (antibody, name in Kabat numbering, V domains shown)
VH: B1 VH with Y100T
VL: B1 VL with T29V
notes: IgG1 kappa

Assays:
human IL-18BP [1] = molecular target: T1, human IL-18BP; assay: BLI, apparent KD, one conc.
human IL-18BP [2] = molecular target: T2, human IL-18BP; assay: BLI, apparent KD

Row | Binder | Kd (human IL-18BP [1]) | Kd (human IL-18BP [2])
1 | B1 | 0.32 nM | –
2 | B2 | 0.35 nM | –
3 | B3 | 0.37 nM | –
4 | B4 | 0.49 nM | –
5 | B5 | 0.31 nM | –
6 | B6 | 0.44 nM | –
7 | B7 | 0.47 nM | –
8 | B8 | 0.34 nM | –
9 | B9 | 0.45 nM | –
10 | B10 | 0.45 nM | –
11 | B11 | 0.3 nM | –
12 | B12 | 0.5 nM | –
13 | B13 | 0.43 nM | –
14 | B14 | 0.42 nM | –
15 | B15 | 0.53 nM | –
16 | B16 | 0.38 nM | –
17 | B17 | 0.63 nM | –
18 | B18 | 0.52 nM | –
19 | B19 | 0.49 nM | –
20 | B20 | 0.43 nM | –
21 | B21 | – | 0.99 nM
22 | B22 | – | 1.24 nM
23 | B23 | – | 0.46 nM
24 | B24 | – | 26.9 nM

Row | Binder | Kd (human IL-18BP [1]) | Kd (human IL-18BP [2])
25 | B25 | – | 0.13 nM
26 | B26 | – | 2.57 nM
27 | B27 | – | 4.02 nM
28 | B28 | – | 2.1 nM
29 | B29 | – | 12.3 nM
30 | B30 | – | 0.31 nM
31 | B31 | – | 0.02 nM
32 | B32 | – | 0.65 nM
33 | B33 | – | 0.87 nM
34 | B34 | – | 0.02 nM
35 | B35 | – | 0.47 nM
36 | B36 | – | 0.55 nM
37 | B37 | – | 1.08 nM
38 | B38 | – | 2.5 nM
39 | B39 | – | 2.98 nM
40 | B40 | – | 2.8 nM
41 | B41 | – | 6.42 nM
42 | B42 | – | 5.41 nM
43 | B43 | – | 1.68 nM
44 | B44 | – | 15.2 nM
45 | B45 | – | 2.29 nM
46 | B46 | – | 0.6 nM
47 | B47 | – | 0.61 nM
